B1: CPEB3 Ribozyme (parent)
chain: UAACAGGGGGCCACAGCAGAAGCGUUCACGUCGCAGCCCCUGUCAGAUUCUGGUGAAUCUGCGAAUUCUGCUGUAUAUCUC

The variants in this data set derive from B1. Put plainly: self-cleavage, relative activity (ratio to wild type); higher = more cleavage; in vitro, sequencing. The gist of the method: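 For each CPEB3 ribozyme variant, relative activity is its cleaved/total read fraction divided by the unmutated ribozyme's. Barcoded error-prone PCR libraries were transcribed by T7 RNA polymerase (5 hours, 37°C) and held in DNase I for 15 min before an EDTA stop, with cleavage occurring throughout. Template-switching reverse transcription and Illumina sequencing were used to read the RNAs. A 5-read minimum applied, and results are the mean of three batches.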
As to UAACAGGGGGCCGCAGCAGAAGCGUUCACGUCGCAGCCCCUGUCAGAUUCUGGUGAAUCUGCGAAUUCUGCUGUAUACCUC, the self-cleavage came to 0.94. To UAACAGGGGGCCGCAGCAGAAGCGUUCACGUCGCAGCCCCUGUCAGAUUCUGGUGAAUCUGCGAAUUCUGCUGUAUAACUC belongs 1.01; to UAACAGGGGGCCGCAGCAGAAGCGUUCACGUCGCAGCCCCUGUCAGAUUCUGGUGAAUCUGCGAAUUCUGCUGUACAUCUC, 0.94; to UAACAGGGGGCCGCAGCAGAAGCGUUCACGUCGCAGCCCCUGUCAGAUUCUGGUGAAUCUGCGAAUUCUGCUGUAGAUCUC, 1.08.

On to UAACAGGGGGCCGCAGCAGAAGCGUUCACGUCGCAGCCCCUGUCAGAUUCUGGUGAAUCUGCGAAUUCUGCUGUAAAUCUC, for which the self-cleavage worked out at 0.99. To UAACAGGGGGCCUCAGCAGUAGCGUUCACGUCGCAGCCCCUGUCAGAUUCUGGUGAAUCUGCGAAUUCUGCUGUAUAUCUC belongs 0.54.

For UAACAGGGGGCCUCAGCAGGAGCGUUCACGUCGCAGCCCCUGUCAGAUUCUGGUGAAUCUGCGAAUUCUGCUGUAUAUCUC, the self-cleavage is 0.93. To UAACAGGGGGCCUCAGCAGAGGCGUUCACGUCGCAGCCCCUGUCAGAUUCUGGUGAAUCUGCGAAUUCUGCUGUAUAUCUC belongs 0.48; to UAACAGGGGGCCUCAGCAGAUGCGUUCACGUCGCAGCCCCUGUCAGAUUCUGGUGAAUCUGCGAAUUCUGCUGUAUAUCUC, 0.35.

For the variant UAACAGGGGGCCUCAGCAGACGCGUUCACGUCGCAGCCCCUGUCAGAUUCUGGUGAAUCUGCGAAUUCUGCUGUAUAUCUC, the self-cleavage worked out at 0.37.

Turning to UAACAGGGGGCCGCAGCAGAAGCGUUCACGUCGCAGCCCCUGUCAGAUUCUGGUGAAUCUGCGAAUUCUGCUGAAUAUCUC, the self-cleavage came out at 1.28. To UAACAGGGGGCCGCAGCAGAAGCGUUCACGUCGCAGCCCCUGUCAGAUUCUGGUGAAUCUGCGAAUUCUGCUGCAUAUCUC belongs 0.72.

Turning to UAACAGGGGGCCGCAGCAGAAGCGUUCACGUCGCAGCCCCUGUCAGAUUCUGGUGAAUCUGCGAAUUCUGCUGGAUAUCUC, the self-cleavage amounted to 1.37. The result for UAACAGGGGGCCGCAGCAGAAGCGUUCACGUCGCAGCCCCUGUCAGAUUCUGGUGAAUCUGCGAAUUCUGCUGUAUAUCCC reads 1.03. Take UAACAGGGGGCCGCAGCAGAAGCGUUCACGUCGCAGCCCCUGUCAGAUUCUGGUGAAUCUGCGAAUUCUGCUGUAUAUCGC: the self-cleavage was found to be 0.75. To UAACAGGGGGCCGCAGCAGAAGCGUUCACGUCGCAGCCCCUGUCAGAUUCUGGUGAAUCUGCGAAUUCUGCUGUAUAUCAC belongs 1.07. The result for UAACAGGGGGCCUCUGCAGAAGCGUUCACGUCGCAGCCCCUGUCAGAUUCUGGUGAAUCUGCGAAUUCUGCUGUAUAUCUC reads 1.05; that for UAACAGGGGGCCUCGGCAGAAGCGUUCACGUCGCAGCCCCUGUCAGAUUCUGGUGAAUCUGCGAAUUCUGCUGUAUAUCUC, 0.69; that for UAACAGGGGGCCUCCGCAGAAGCGUUCACGUCGCAGCCCCUGUCAGAUUCUGGUGAAUCUGCGAAUUCUGCUGUAUAUCUC, 0.88. The result for UAACAGGGGGCCGCAGCAGAAGCGUUCACGUCGCAGCCCCUGUCAGAUUCUGGUGAAUCUGCGAAUUCCGCUGUAUAUCUC reads 0.32; that for UAACAGGGGGCCGCAGCAGAAGCGUUCACGUCGCAGCCCCUGUCAGAUUCUGGUGAAUCUGCGAAUUCGGCUGUAUAUCUC, 0.39; that for UAACAGGGGGCCGCAGCAGAAGCGUUCACGUCGCAGCCCCUGUCAGAUUCUGGUGAAUCUGCGAAUUCAGCUGUAUAUCUC, 0.38. Take UAACAGGGGGCCUCAGCAGAAGCGUUCACGUCGCAGCCCCUGUCAGAUUCUGGUGAAUCUGCGAAUUCUGCUGUAUAUCUC: the self-cleavage was found to be 1.17. Turning to UAACAGGGGGCCUCAGCUGAAGCGUUCACGUCGCAGCCCCUGUCAGAUUCUGGUGAAUCUGCGAAUUCUGCUGUAUAUCUC, the self-cleavage came to 0.38. In the case of UAACAGGGGGCCUCAGCGGAAGCGUUCACGUCGCAGCCCCUGUCAGAUUCUGGUGAAUCUGCGAAUUCUGCUGUAUAUCUC, the self-cleavage turned out to be 0.87. In the case of UAACAGGGGGCCUCAGCCGAAGCGUUCACGUCGCAGCCCCUGUCAGAUUCUGGUGAAUCUGCGAAUUCUGCUGUAUAUCUC, the self-cleavage came out at 0.42. For UAACAGGGGGCCUCAGCAGAAGCGUUCUCGUCGCAGCCCCUGUCAGAUUCUGGUGAAUCUGCGAAUUCUGCUGUAUAUCUC, the self-cleavage came out at 1.01. Turning to UAACAGGGGGCCUCAGCAGAAGCGUUCGCGUCGCAGCCCCUGUCAGAUUCUGGUGAAUCUGCGAAUUCUGCUGUAUAUCUC, the self-cleavage is 0.72. To UAACAGGGGGCCUCAGCAGAAGCGUUCCCGUCGCAGCCCCUGUCAGAUUCUGGUGAAUCUGCGAAUUCUGCUGUAUAUCUC belongs 0.64; to UAACAGGGGGCCGCAGCAGAAGCGUUCACGUCGCAGCCCCUGUCAGAUUCUGGUGAAUCUGCGAAUUCUGCAGUAUAUCUC, 0.54. The result for UAACAGGGGGCCGCAGCAGAAGCGUUCACGUCGCAGCCCCUGUCAGAUUCUGGUGAAUCUGCGAAUUCUGCCGUAUAUCUC reads 0.8; that for UAACAGGGGGCCGCAGCAGAAGCGUUCACGUCGCAGCCCCUGUCAGAUUCUGGUGAAUCUGCGAAUUCUGCGGUAUAUCUC, 0.46. Consider UAACAGGGGGCCGCAGCAGAAGCGUUCACGUCGCAGCCCCUGUCAGAUUCUGGUGAAUCUGCGAAUCCUGCUGUAUAUCUC, for which the self-cleavage is 0.25. As for UAACAGGGGGCCGCAGCAGAAGCGUUCACGUCGCAGCCCCUGUCAGAUUCUGGUGAAUCUGCGAAUACUGCUGUAUAUCUC, the self-cleavage was determined as 0.43.

The values above are taken from the RNAGym collection of RNA variant scans (doi:10.1093/nar/gkz1192).
